This note sets out measurements from the supplement of paper PMC10567573.

To fix the notation:
B1: TRAF3IP2 (parent)
chain: KEHVPTWLQNTHVYSWPKNKKNIL
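Further: lentivirally expressed fusions sorted by FACS into six bins by GFP to DsRed ratio, PSI derived from sequencing read proportions per bin multiplied by bin number.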

In the series the parent is B1. Description: protein stability index of a GFP-peptide fusion (GPS, HEK-293T) (PSI 1-6); higher = more stable. The conditions noted are these: c terminus: a fixed tail appended.
On to KEHVPTWLQNTHTYSWPKNKKNIL, for which the protein stability index amounted to 2.66.

Regarding KEHVPTWLQNTHYYSWPKNKKNIL, the protein stability index amounted to 2.62.

On to KEHVPTWLQNTHWYSWPKNKKNIL, for which the protein stability index stood at 2.46.

On to KEHVPTWLQNTHVYSWPKNKKNSL, for which the protein stability index came out at 2.94.

Regarding KEHVPTWLQNTHVYSWPKNKKNAL, the protein stability index was 2.89.

Regarding KEHVPTWLQNTHVYSWPKNKKNEL, the protein stability index worked out at 3.54.

For the variant KEHVPTWLQNTHVYSWPKNKKNPL, the protein stability index is 2.54.

For the variant KEHVPTWLQNTHVYSWPKNKKNHL, the protein stability index came out at 3.19.

In the case of KEHVPTWLQNTHVYSWPKNKKNNL, the protein stability index worked out at 3.19.

On to KEHVPTWLQNTHVYSWPKNKKNFL, for which the protein stability index came out at 2.69.

As to KEHVPTWLQNTHVYSWPKNKKNKL, the protein stability index is 3.52.

For KEHVPTWLQNTHVYSWPKNKKNML, the protein stability index amounted to 2.91.

As for KEHVPTWLQNTHVYSWPKNKKNLL, the protein stability index worked out at 2.68.

In the case of KEHVPTWLQNTHVYSWPKNKKNTL, the protein stability index was 2.54.

Take KEHVPTWLQNTHVYSWPKNKKNCL: the protein stability index amounted to 3.02.

As to KEHVPTWLQNTHVYSWPKNKKNRL, the protein stability index was 3.74.

As to KEHVPTWLQNTHVYSWPKNKKNGL, the protein stability index was found to be 2.96.

As for KEHVPTWLQNTHVYSWPKNKKNVL, the protein stability index turned out to be 3.07.

Turning to KEHVPTWLQNTHVYSWPKNKKNDL, the protein stability index is 3.75.

Regarding KEHVPTWLQNTHVYSWPKNKKNQL, the protein stability index is 2.75.

For KEHVPTWLQNTHVYSWPKNKQNIL, the protein stability index stood at 2.27.

Regarding KEHVPTWLQNTHVYSWPKNKTNIL, the protein stability index is 2.65.

For KEHVPTWLQNTHVYSWPKNKLNIL, the protein stability index amounted to 2.18.

For the variant KEHVPTWLQNTHVYSWPKNKHNIL, the protein stability index came to 2.17.

On to KEHVPTWLQNTHVYSWPKNKNNIL, for which the protein stability index stood at 1.93.

For the variant KEHVPTWLQNTHVYSWPKNKCNIL, the protein stability index turned out to be 2.3.

With KEHVPTWLQNTHVYSWPKNKGNIL, the protein stability index is 2.31.

As for KEHVPTWLQNTHVYSWPKNKENIL, the protein stability index stood at 2.68.

As for KEHVPTWLQNTHVYSWPKNKMNIL, the protein stability index turned out to be 1.95.

Turning to KEHVPTWLQNTHVYSWPKNKRNIL, the protein stability index worked out at 2.05.

For the variant KEHVPTWLQNTHVYSWPKNKFNIL, the protein stability index stood at 1.8.

On to KEHVPTWLQNTHVYSWPKNKPNIL, for which the protein stability index stood at 2.79.

KEHVPTWLQNTHVYSWPKNKYNIL: the protein stability index was found to be 1.83.

With KEHVPTWLQNTHVYSWPKNKINIL, the protein stability index amounted to 2.12.

Consider KEHVPTWLQNTHVYSWPKNKANIL, for which the protein stability index stood at 2.08.

As to KEHVPTWLQNTHVYSWPKNKVNIL, the protein stability index was 2.03.

Consider KEHVPTWLQNTHVYSWPKNKDNIL, for which the protein stability index is 2.73.

For KEHVPTWLQNTHVYSWPKNKWNIL, the protein stability index is 1.97.

As to KEHVPTWLQNTHVYSWPKNKSNIL, the protein stability index stood at 2.24.

For KEHVPTWLQNTHVWSWPKNKKNIL, the protein stability index amounted to 1.98.

With KEHVPTWLQNTHVTSWPKNKKNIL, the protein stability index amounted to 3.

For the variant KEHVPTWLQNTHVISWPKNKKNIL, the protein stability index amounted to 3.71.

KEHVPTWLQNTHVCSWPKNKKNIL: the protein stability index came to 2.63.

For the variant KEHVPTWLQNTHVPSWPKNKKNIL, the protein stability index worked out at 2.98.

Take KEHVPTWLQNTHVFSWPKNKKNIL: the protein stability index stood at 2.05.

For the variant KEHVPTWLQNTHVVSWPKNKKNIL, the protein stability index was found to be 2.69.

In the case of KEHVPTWLQNTHVGSWPKNKKNIL, the protein stability index came out at 3.05.

As for KEHVPTWLQNTHVSSWPKNKKNIL, the protein stability index is 3.4.

For KEHVPTWLQNTHVMSWPKNKKNIL, the protein stability index turned out to be 2.76.

As to KEHVPTWLQNTHVKSWPKNKKNIL, the protein stability index turned out to be 2.49.

As to KEHVPTWLQNTHVLSWPKNKKNIL, the protein stability index is 2.29.

Take KEHVPTWLQNTHVNSWPKNKKNIL: the protein stability index was 3.24.

Turning to KEHVPTWLQNTHVDSWPKNKKNIL, the protein stability index came out at 3.

Consider KEHVPTWLQNTHVASWPKNKKNIL, for which the protein stability index was 3.14.

As for KEHVPTWLQNTHVRSWPKNKKNIL, the protein stability index turned out to be 2.73.

In the case of KEHVPTWLQNTHVQSWPKNKKNIL, the protein stability index amounted to 3.06.

Turning to KEHVPTWLQNTHVHSWPKNKKNIL, the protein stability index is 3.46.

With KEHVPTWLQNTHVESWPKNKKNIL, the protein stability index turned out to be 3.14.

With KEHVPTWLQNTHVYSCPKNKKNIL, the protein stability index is 2.88.

With KEHVPTWLQNTHVYSAPKNKKNIL, the protein stability index amounted to 3.35.

Turning to KEHVPTWLQNTHVYSMPKNKKNIL, the protein stability index was found to be 2.75.

Turning to KEHVPTWLQNTHVYSQPKNKKNIL, the protein stability index came to 3.36.

Regarding KEHVPTWLQNTHVYSSPKNKKNIL, the protein stability index worked out at 3.08.

Regarding KEHVPTWLQNTHVYSIPKNKKNIL, the protein stability index amounted to 3.05.

For KEHVPTWLQNTHVYSVPKNKKNIL, the protein stability index was 2.88.

Take KEHVPTWLQNTHVYSHPKNKKNIL: the protein stability index was found to be 3.39.

In the case of KEHVPTWLQNTHVYSYPKNKKNIL, the protein stability index was 3.

Take KEHVPTWLQNTHVYSFPKNKKNIL: the protein stability index came to 2.7.

Turning to KEHVPTWLQNTHVYSTPKNKKNIL, the protein stability index was determined as 3.68.

KEHVPTWLQNTHVYSPPKNKKNIL: the protein stability index came to 3.82.

For KEHVPTWLQNTHVYSLPKNKKNIL, the protein stability index was 3.02.

With KEHVPTWLQNTHVYSKPKNKKNIL, the protein stability index turned out to be 2.81.

Regarding KEHVPTWLQNTHVYSRPKNKKNIL, the protein stability index stood at 3.9.

With KEHVPTWLQNTHVYSNPKNKKNIL, the protein stability index is 3.39.

For KEHVPTWLQNTHVYSEPKNKKNIL, the protein stability index turned out to be 3.77.

As to KEHVPTWLQNTHVYSGPKNKKNIL, the protein stability index was 3.55.

As to KEHVPTWLQNTHVYSDPKNKKNIL, the protein stability index was 3.53.

As for KEHVPTWLQNTHVYSWAKNKKNIL, the protein stability index worked out at 2.22.

For the variant KEHVPTWLQNTHVYSWTKNKKNIL, the protein stability index came out at 2.29.

For the variant KEHVPTWLQNTHVYSWNKNKKNIL, the protein stability index was 1.95.

For KEHVPTWLQNTHVYSWLKNKKNIL, the protein stability index stood at 1.85.

KEHVPTWLQNTHVYSWDKNKKNIL: the protein stability index came out at 2.71.

KEHVPTWLQNTHVYSWHKNKKNIL: the protein stability index came to 2.21.

Consider KEHVPTWLQNTHVYSWWKNKKNIL, for which the protein stability index worked out at 2.1.

For the variant KEHVPTWLQNTHVYSWGKNKKNIL, the protein stability index came to 2.17.

Turning to KEHVPTWLQNTHVYSWYKNKKNIL, the protein stability index was 2.03.

In the case of KEHVPTWLQNTHVYSWKKNKKNIL, the protein stability index is 2.31.

In the case of KEHVPTWLQNTHVYSWEKNKKNIL, the protein stability index came out at 2.23.

On to KEHVPTWLQNTHVYSWSKNKKNIL, for which the protein stability index was 2.81.

In the case of KEHVPTWLQNTHVYSWCKNKKNIL, the protein stability index was determined as 2.36.

Regarding KEHVPTWLQNTHVYSWVKNKKNIL, the protein stability index was found to be 1.98.

On to KEHVPTWLQNTHVYSWIKNKKNIL, for which the protein stability index came out at 2.1.

As to KEHVPTWLQNTHVYSWQKNKKNIL, the protein stability index turned out to be 2.95.

For the variant KEHVPTWLQNTHVYSWFKNKKNIL, the protein stability index amounted to 2.18.
